# Results as given in patent publication US20110311550A1.
# Experiments:
# Test in all cases: ELISA, lectin-captured E1E2 lysate, Ab 1 ug/ml
# [1] = target: E1E2 complex (H77) with E1 mutation S327A (HCV genotype 1a, isolate H77) (UniProt P27958)
# [2] = target: E1E2 complex (H77) with E2 mutation Y618A (HCV genotype 1a, isolate H77) (UniProt P27958)
# [3] = target: E1E2 complex (H77) with E1 mutation R259A (HCV genotype 1a, isolate H77) (UniProt P27958)
# [4] = target: E1E2 complex (H77) with E1 mutation G278A (HCV genotype 1a, isolate H77) (UniProt P27958)
# [5] = target: E1E2 complex (H77) with E1 mutation P328A (HCV genotype 1a, isolate H77) (UniProt P27958)
# [6] = target: E1E2 complex (H77) with E1 mutation M322A (HCV genotype 1a, isolate H77) (UniProt P27958)
# [7] = target: E1E2 complex (H77) with E1 mutation V194A (HCV genotype 1a, isolate H77) (UniProt P27958)
# [8] = target: E1E2 complex (H77) with E1 mutation T292A (HCV genotype 1a, isolate H77) (UniProt P27958)
# [9] = target: E1E2 complex (H77) with E2 mutation H638A (HCV genotype 1a, isolate H77) (UniProt P27958)
# [10] = target: E1E2 complex (H77) with E2 mutation R639A (HCV genotype 1a, isolate H77) (UniProt P27958)
# [11] = target: E1E2 complex (H77) with E1 mutation N196A/N325A (HCV genotype 1a, isolate H77) (UniProt P27958)
# [12] = target: E1E2 complex (H77) with E1 mutation N196A/N234A (HCV genotype 1a, isolate H77) (UniProt P27958)
# [13] = target: E1E2 complex (H77) with E2 mutation N623A (HCV genotype 1a, isolate H77) (UniProt P27958)
# [14] = target: E1E2 complex (H77) with E2 mutation G436A (HCV genotype 1a, isolate H77) (UniProt P27958)
# [15] = target: E1E2 complex (H77) with E1 mutation N196A/N305A (HCV genotype 1a, isolate H77) (UniProt P27958)
# [16] = target: E1E2 complex (H77) with E1 mutation H352A (HCV genotype 1a, isolate H77) (UniProt P27958)
# [17] = target: E1E2 complex (H77) with E1 mutation S198A (HCV genotype 1a, isolate H77) (UniProt P27958)
# [18] = target: E1E2 complex (H77) with E1 mutation H316A (HCV genotype 1a, isolate H77) (UniProt P27958)
# [19] = target: E1E2 complex (H77) with E1 mutation P295A (HCV genotype 1a, isolate H77) (UniProt P27958)
# [20] = target: E1E2 complex (H77) with E1 mutation S307A (HCV genotype 1a, isolate H77) (UniProt P27958)
# [21] = target: E1E2 complex (H77) with E1 mutation R195A (HCV genotype 1a, isolate H77) (UniProt P27958)
# [22] = target: E1E2 complex (H77) with E1 mutation H298A (HCV genotype 1a, isolate H77) (UniProt P27958)
# [23] = target: E1E2 complex (H77) with E1 mutation D279A (HCV genotype 1a, isolate H77) (UniProt P27958)
# [24] = target: E1E2 complex (H77) with E1 mutation D263A (HCV genotype 1a, isolate H77) (UniProt P27958)
# [25] = target: E1E2 complex (H77) with E2 mutation T435A (HCV genotype 1a, isolate H77) (UniProt P27958)
# [26] = target: E1E2 complex (H77) with E1 mutation V266A (HCV genotype 1a, isolate H77) (UniProt P27958)
# [27] = target: E1E2 complex (H77) with E1 mutation A274G (HCV genotype 1a, isolate H77) (UniProt P27958)
# [28] = target: E1E2 complex (H77) with E1 mutation N305A/N234A (HCV genotype 1a, isolate H77) (UniProt P27958)
# [29] = target: E1E2 complex (H77) with E1 mutation G315A (HCV genotype 1a, isolate H77) (UniProt P27958)
substance,measurement,setting,value
mouse anti-E1 MAb A4 (antibody),Binding relative to wt (%),[1],85%
same,Binding relative to wt (%),[2],157%
same,Binding relative to wt (%),[3],97%
same,Binding relative to wt (%),[4],58%
same,Binding relative to wt (%),[5],123%
same,Binding relative to wt (%),[6],115%
same,Binding relative to wt (%),[7],160%
same,Binding relative to wt (%),[8],90%
same,Binding relative to wt (%),[9],104%
same,Binding relative to wt (%),[10],162%
same,Binding relative to wt (%),[11],64%
same,Binding relative to wt (%),[12],71%
same,Binding relative to wt (%),[13],116%
same,Binding relative to wt (%),[14],96%
same,Binding relative to wt (%),[15],69%
same,Binding relative to wt (%),[16],85%
same,Binding relative to wt (%),[17],61%
same,Binding relative to wt (%),[18],95%
same,Binding relative to wt (%),[19],132%
same,Binding relative to wt (%),[20],157%
same,Binding relative to wt (%),[21],197%
same,Binding relative to wt (%),[22],164%
same,Binding relative to wt (%),[23],28%
same,Binding relative to wt (%),[24],96%
same,Binding relative to wt (%),[25],117%
same,Binding relative to wt (%),[26],96%
same,Binding relative to wt (%),[27],53%
same,Binding relative to wt (%),[28],109%
same,Binding relative to wt (%),[29],91%
